From patent publication US20260139278A1, “SPECIFICITY OF CRISPR-TRANSPOSON SYSTEMS IN DNA MODIFICATION” (The Trustees of Columbia University in the City of New York, published 2026)
Each block holds one binder with its values, some of them ahead of it.

Key:
[1] = target: T1, TnsC (Scytonema hofmannii UTEX B 2349, Type V-K CAST, recombinantly purified, after TEV cleavage) (Scytonema hofmannii (UTEX B 2349)); experiment: fluorescence polarization, TniQ (0-1 µM) titrated onto 55-bp FAM-labeled dsDNA preincubated with TnsC
T1 construct: also called AAA+ ATPase; AAA+ regulator
T1 chain: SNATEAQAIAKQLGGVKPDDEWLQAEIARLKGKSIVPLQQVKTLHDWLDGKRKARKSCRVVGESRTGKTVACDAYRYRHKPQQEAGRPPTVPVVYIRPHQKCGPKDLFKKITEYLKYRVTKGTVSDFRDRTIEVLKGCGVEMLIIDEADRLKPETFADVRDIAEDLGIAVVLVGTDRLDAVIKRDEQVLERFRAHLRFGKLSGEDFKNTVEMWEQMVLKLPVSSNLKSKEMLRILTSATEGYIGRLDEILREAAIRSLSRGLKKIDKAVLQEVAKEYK
Description: (§1) Fluorescence polarization. Fluorescence polarization was performed as reported earlier (Hoffmann, F. T. et al. Nature 609, 384-393 (2022). A 55 bp dsDNA labeled with a 5′ Fluorescein (6-FAM) tag on one of its strands was used for all fluorescence polarization experiments (Table 3). Recombinantly expressed TnsC (0-15 μM) was titrated with the FAM-labeled dsDNA in 1× binding buffer (20 mM HEPES pH 7.5, 2 mM MgCl₂, 200 mM NaCl, 10 μM ZnCl₂, 1 mM DTT) in the presence of 2 mM ATP or its analogs. The samples were incubated at 37° C. for 30 min in a 384-well plate. The fluorescence gain was adjusted to a sample lacking TnsC while keeping a requested polarization value of 60 mP. The error bar represents the standard deviation measured across two technical replicates. For low salt measurements, the concentration of NaCl was maintained at 50 mM.
(§2) For fluorescence polarization measurements for TniQ alone or its interaction with DNA bound to TnsC, TniQ (0-1 μM) was titrated and incubated for 30 min at 37° C. with fluorescently labeled DNA alone or DNA preincubated with […] (30 min at 37° C.). Experiments were conducted in a 1× binding buffer containing 50 mM NaCl in a 25 μL final volume.

[2] = target: T2, TnsC (Scytonema hofmannii UTEX B 2349, Type V-K CAST, recombinantly purified, after TEV cleavage)
T2 chain: T1 chain

TniQ + TnsC (ShCAST) = target: T3, TniQ + TnsC (ShCAST) (Scytonema hofmannii UTEX B 2349); experiment: FP; TniQ titrated onto DNA preincubated with TnsC, 50 mM NaCl, 37C; settings: tags: His6-SUMO-TEV cleaved
T3 chain 1: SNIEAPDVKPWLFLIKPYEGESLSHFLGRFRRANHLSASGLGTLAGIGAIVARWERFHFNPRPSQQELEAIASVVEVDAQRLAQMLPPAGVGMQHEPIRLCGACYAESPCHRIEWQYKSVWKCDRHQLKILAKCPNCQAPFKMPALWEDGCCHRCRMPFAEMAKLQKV
T3 chain 2: T1 chain
Description: as §1, §2

TnsC (ShCAST) = target: T4, TnsC (ShCAST) (Scytonema hofmannii UTEX B 2349); experiment: FP; ATP-dependent at 200 mM NaCl; nucleotide-independent at 50 mM NaCl; 2 mM MgCl2, 37C; settings: tags: His6-SUMO-TEV cleaved (SNA N-terminal scar)
T4 chain: T1 chain
Description: as §1

binding result [1]: binds
B1: TniQ (Scytonema hofmannii UTEX B 2349, Type V-K CAST, recombinantly purified, after TEV cleavage) (other)
chain: T3 chain 1
notes: also called ShCAST TniQ; adaptor protein

B2: TnsB (Scytonema hofmannii UTEX B 2349, Type V-K CAST, recombinantly purified, after TEV cleavage) (protein)
chain: SNNSQQNPDLAVHPLAIPMEGLLGESATTLEKNVIATQLSEEAQVKLEVIQSLLEPCDRTTYGQKLREAAEKLNVSLRTVQRLVKNWEQDGLVGLTQTSRADKGKHRIGEFWENFITKTYKEGNKGSKRMTPKQVALRVEAKARELKDSKPPNYKTVLRVLAPILEKQQKAKSIRSPGWRGTTLSVKTREGKDLSVDYSNHVWQCDHTRVDVLLVDQHGEILSRPWLTTVIDTYSRCIMGINLGFDAPSSGVVALALRHAILPKRYGSEYKLHCEWGTYGKPEHFYTDGGKDFRSNHLSQIGAQLGFVCHLRDRPSEGGVVERPFKTLNDQLFSTLPGYTGSNVQERPEDAEKDARLTLRELEQLLVRYIVDRYNQSIDARMGDQTRFERWEAGLPTVPVPIPERDLDICLMKQSRRTVQRGGCLQFQNLMYRGEYLAGYAGETVNLRFDPRDITTILVYRQENNQEVFLTRAHAQGLETEQLALDEAEAASRRLRTAGKTISNQSLLQEVVDRDALVATKKSRKERQKLEQTVLRSAAVDESNRESLPSQIVEPDEVESTETVHSQYEDIEVWDYEQLREEYGF
ATP hydrolysis activity of TnsC (Malachite Green assay) [2]: TnsB stimulates the ATP hydrolysis activity of TnsC in a DNA-dependent reaction | phosphate liberated (Malachite Green Phosphate Assay; TnsC 10 µM, TnsB 20 µM, dsDNA 10 µM, 1 mM ATP, 120 min at 37° C.) [2]: the sample containing TnsC, TnsB and dsDNA which liberated 174 µM of phosphate

B3: 55-bp FAM dsDNA (dsDNA)
DNA 1: GAGGAGGGCTGTTTTTACAAAATCCGGTAGTAACTTGCTAACCAATTCCTAGGCA
DNA 2: TGCCTAGGAATTGGTTAGCAAGTTACTACCGGATTTTGTAAAAACAGCCCTCCTC
binding result (TniQ + TnsC (ShCAST)): binds | binding result (TnsC (ShCAST)): binds
